Assay results: the DeepSol protein solubility set

assay: soluble on expression in E. coli; label from the status in PepcDB or PDB records

| Sequence | soluble on expression in E. coli |
| --- | --- |
| PVAVYTTHDPQALKITGNRLSCEWLRIPPGTNLSKSAHEGERPEFFKLFKDGVEIPPEKMPSQLSAAGIEVNDCELDIVSADGRIRHVLGNARPLRDEN | not soluble |
| MDLRTANVTRYILPLREGGSLPALAEADDEFKYVVKFRGAGHGTKALIAELIGGEIARTLGFRVPEIIFLNLDEAFGRTEADEEIQDLLQWSRGLNIGLHFLSGALTFDPVVHQVDGKTASQIVWMDAFLTNVDRTIKNTNMLMWHKELWLIDHGASLYFQHSWTNWQKQALTPFVQIKDHVLLPFADQLKETDMAFRQLLTSDKIWEIVNTVPDDWLNWTEGQETPQDLRDIYIQFLEERIKHSELFVNEAQHARKALI | not soluble |
| GSHMASKISDNVRIKLYMEGTVNNHHFMCEAEGEGKPYEGTQMENIKVTKGGPLPFSFDILTPNCQYGSVAITKYTSGIPDYFKQSFPEGFTWERTTIYEDGAYLTTQQETKLDGNCLVYNIKILGCNFPPNGPVMQKKTQGWEPCCEMRYTRDGVLCGQTLMALKCADGNHLTCHLRTTYRSKKAAKALQMPPFHFSDHRPEIVKVSENGTLFEQHESSVARYCQTCPSKLGHN | soluble |
| MGSSHHHHHHSSGRENLYFQGHMMSGHNKWANIKHRKMAQDAKKSKIFTKLIREIIVAAREGGGNIETNPRLRAAVERARAENMPKENIERAIKRGTGELEGVDYQEVIYEGYAPGGVAVYIRALTDNKNRTAQELRHLFNKYGGSLAESGSVSWIFERKGVIEISRDKVKDLEELMMIAIDAGAEDIKDAEDPIQIITAPENLSEVKSKLEEAGYEVEAKVTFIPKNTVKVTGKDAEKVLEFLNALEDMDDVQEVYSNFEMDDKEMEEILSRLEG | soluble |
| MGSDKIHHHHHHMTVQSSDVIAPPAPRTLPDTGLSLVMLRDILLKTMFRMNLELVSQIAPVICLPAPLAQELVDLARSQRLVEATGTLHATSGNEMGYQLTDQGKARALDALSQSEYYGAMPVPLDRYRLQVERQSVRHIKLTRAQLTAAMGHLILPDELLDHLGPAVTSGRSILMYGPPGNGKSSISNGIRDALGDRIYVPRALEYSGQVITVYDPIVHRSAESAVDDPTSLRRTSNRFDNRYVWCERPTVITGGELTLDMLDLTYNPVARTYQAPLQLKATGGIFIVDDLGRQAEPPQKLVNRWIVPLEENRDILALQSGEKFTVPFDTLVIFSTNFHPNEIFDGAALRRIFFKIKVDGPSQENFLKIFAMVAKKRKMPLDETALVHLMKAKFPTIDNRYANYMPVYLIDQMISVCDFEGLPYQMTPALIDRAWSNMFVRDEVIAK | not soluble |
| MKKLAILLVCAAMLASCNGLGGGSKDLKAENDSLLMELTQRNAELDEMMGTFNEVQEGFRKINAAESRVDLTRGTISENSATAKQQIASDIEFITKQMEENKAQIAKLQAMLKSSKNNSAQLKKAVESLTQELVAKTQRIEELQAELASKNIRIQELDAAVTGLTADKESLAAENEAKAKTVAEQDKAINSAWFVFGTKSELKTQKILEKGDVLKSADFNKDYFTQIDIRTTKEIKLYSKRAELLTTHPAKSYELVKDDKGQLTLKITNPKEFWSVSKYLVIQVK | not soluble |
| MGSDKIHHHHHHMTNTFSFDWAIAPETPDTFFAEYFEKKPMLIKRGQPGYFSDLLSYGEIDRVVSTMGLHVPEINVTRADGNITPADFAYETGQIDPVRVNQLHADGATVILSGLHERLPALARYCRAMEAAMSARVQTNIYMTPPGNQGFNPHYDGHDVLVLQVAGTKEWRIYGTPVELPLADQAFERGMDVGEEAQRFVLEPGDAVYIPRGMAHDAVATDETSLHITTGLMFRTWADALAEAVIAKAHREPSLRRALPPGFANNGVDLDDYKDTFAELIELVGDAHVGKLLSGFREEFLTARVPRVEGQMAQLAKLDGLTMDSRMGAHPHIVFGIHDVPNEDQVCLVAQGAEIILPAHARDAMEFCITTADFRLGDMEGDLDDAGKMVLAKRFVREGLMRVL | not soluble |
| MMSNQTVYQFIAENQNELLQLWTDTLKELSEQESYQLTDQVYENISKEYIDILLLSVKDENAAESQISELALRAVQIGLSMKFLATALAEFWKRLYTKMNDKRLPDQESTELIWQIDRFFSPINTEIFNQYSISWE | soluble |
| MNSPDIALIKTYLLTLQDNICAALAQADGHAEFTEECWVREEGGGGRSRVLVNGAVFEQAGVNFSHVSGAMLPASATAHRPELAGRSFQALGVSLVIHPLNPYLPTSHANVRFFIAEKPGEDAVWWFGGGFDLTPYYGFEEDAIHWHQVAHSLCQPFGEQIYPRYKKWCDDYFYIKHRQEARGIGGLFFDDLNSPDFMTCFNFTQAVGDGFLAAYMPIVARRKALGWGDRERQFQLYRRGRYVEFNLVWDRGTLFGLQTGGRTESILMSLPPLVRWEYNYQPEADSAEAALYRDFLPVKDWLAIKGETH | not soluble |
| MVEKPVVIKFGGTSVRYAFEEALELVAKLHENMKIIVVVSALAGVTDCLLRLAKGDKSALLEIDEIHEELSQELNVQLEHLIHQLKKTINSKSSFPSEKAFIDEIASFGERFSAKLFSEGLKILGITARPVDSKDVLFVKGEFGNAEVEFKKSAQGVDVLYRMLRRGIVPVVTGYYGNLNGFRATFGRGGSDYSATSIASLVNAKAVLIMSDVEGIYTADPKLVPPARLIHYISYKEAKTAAKLGMKVLHPRAIDPVEGKIPVILGKTRDLKFGTLISHESQGIPIVTHKLLENHAEISVVSVKTNIPLPYEVYEEGDLYFKIKTSKDQFLEVLRDVHRRVVENENLHSSHDGELWTWVLEHHHHHH | not soluble |
| MGSDKIHHHHHHMIDIHCHILPEIDDGPSSLEESLVMAREAVKEGITKIIATPHHLHPSYNNKAAVVKEKVRKLNEAIQKENIPLEILPGQEVRISGDVMDGLVSGDILTLADQGKYLFVEFSSNHVSRYADKLFFQLLSQDIIPIIVHPERNHEFLKNPGLLYDLVNGGALTQITTSSLTGHLGKKIKKFTEQIIEADLTHFLASDAHNVTERTFRIREAFALVEKNYGSSKAYEFQENAELLVENQHVMGPPPQPIVKKKLLGIF | not soluble |
| NLKVKGARDVFEYMKGRIPDETKEHLFVLFLSTKNQILRHETITIGTLTASLIHPREIFKAAIRESAHSIILVHNHPSGDVQPSNADKQVTSILKKAGDLLQIELLDHVIVGNNDWFSFRDHALL | soluble |
| MLRVLVGAVLPAMLLAAPPPINKLALFPDKSAWCEAKNITQIVGHSGCEAKSIQNRACLGQCFSYSVPNTFPQSTESLVHCDSCMPAQSMWEIVTLECPGHEEVPRVDKLVEKILHCSCQACGKEPSHEGLSVYVQGEDGPGSQPGTHPHPHPHPHPGGQTPEPEDPPGAPHTEEEGAED | soluble |
| MKLFISPGACSLAPHIALRETGADFEAVKVDLAVRKTEAGEDFLTVNPSGKVPALTLDSGETLTENPAILLYIADQNPASGLAPAEGSLDRYRLLSRLSFLGSEFHKAFVPLFAPATSDEAKAAAAESVKNHLAALDKELAGRDHYAGNAFSVADIYLYVMLGWPAYVGIDMAAYPALGAYAGKIAQRPAVGAALKAEGLA | soluble |
| MNAADRVMQSYGRCCASTGFFDDFYRHFLASSPQIRAKFATTDMTAQKHLLRAGIMNLVMYARGMSDSKLRALGASHSRAALDIRPELYDLWLDALLMAVAEHDRDCDAETRDAWRDVMGRGIAVIKSYY | soluble |
| MSLREAVLANLKKITDPVSGQDIVSAGIVRALNVEGDTVRFVIEIDPKLAERMEPVRAAAEKAAQMVEGVAKVSAMMTAHSDKAPPELKPRAKAAPQGPQPVAGVDRIVAVASGKGGVGKSTVSANLACALAAEGRRVGLLDADVYGPSQPRMLGVSGRPASPDGKTILPLRNHGVTMMSMGLMTNEGQAVVWRGPMLMGALQQMMNQVQWGGLDVLIVDLPPGTGDVQLTLSQKFAVDGAIIVSTPQDVALIDARKGIDMFRQLKTPILGMIENMSTHICSNCGHEEHVFGHGGVAAEAEKLGVPLLGEIPLHLDIRVAADGGAPIVVSKPDSPQAEAFRRIARDLIAKGQALEHHHHHH | soluble |
| MGSDKIHHHHHHMKILVYGINYSPELTGIGKYTGEMVAWMAQEGHEVRVITAPPYYPQWKVGERYSAWRYRREEGEATVWRCPLYVPKQPSTLKRLLHLGSFALSSFFPLMAQRRWKPDRIIGVVPTLFCTPGMRLLATLSGARTVLHIQDYEVDAMLGLGMAGKGKRGSVARLATAFERSALRNVDNVSTISRSMMNKAREKGVAAEKILFFPNWSEVARFQDVNDADVTALRQQLGLPEGKKIVLYSGNIGEKQGLEKVIDAAERLRDRPLIFAIVGQGGGKARLENMARERGLANIKFLPLQPYDALPALLKMGDCHLVVQKRGAADAVLPSKLTNILAVGGNAVITAEPHTELGQLCARYPGIAVCVEPESTDALVNGISQALAMPKNNTTAREYAERTLNKENVLRQFIADIRG | not soluble |
| MALARANSPQEALLWALNDLEENSFKTLKFHLRDVTQFHLARGELESLSQVDLASKLISMYGAQEAVRVVSRSLLAMNLMELVDYLNQVCLNDYREIYREHV | soluble |
| MRGSTRDQNGTWEMESNENFEGYMKALDIDFATRKIAVRLTQTKVIDQDGDNFKTKTTSTFRNYDVDFTVGVEFDEYTKSLDNRHVKALVTWEGDVLVCVQKGEKENRGWKQWIEGDKLYLELTCGDQVCRQVFKKKLVPR | soluble |
| MAHHHHHHMQQENRHLSSADLFKKFTLQNVAQIANISNKEQSQIRGELTEQYPLLADFWEDIMPKKADIMLVRCHDQVHCVTLVSSQPEVLFFRHHNSPYIPHLKLLHKYPFILPRQQVDIGGCKYVVSGANVMCPGLTSEGGYITPGLAAGAIVAIHVEQKEHAIAVGRMLMSSEEIERVNNGPGIENIHHLGDGLWMNRVLSSSHIGAR | soluble |
| MNKILLVDDDRELTSLLKELLEMEGFNVIVAHDGEQALDLLDDSIDLLLLDVMMPKKNGIDTLKALRQTHQTPVIMLTARGSELDRVLGLELGADDYLPKPFNDRELVARIRAILRRSHWSEQQQNNDNGSPTLEVDALVLNPGRQEASFDGQTLELTGTEFTLLYLLAQHLGQVVSREHLSQEVLGKRLTPFDRAIDMHISNLRRKLPDRKDGHPWFKTLRGRGYLMVSAS | soluble |
| MGSDKIHHHHHHMFVGASEFRLTDAEHGLSFPVLVMYPTRQLPSRHAFGPYLMDVSMNAPIAGGQHPLILVSHGSGGSHLLYRTMTAHLAQHGYVVAMIEHPGNNRVDNQFMGKVENLQYRPRHLRLTADALYGDAVLGPHLQAGRIGVIGHSMGGYTALALAGGTPWYPPEAFQPDYRGPAPAVVDVEHDDRVKALVLLAPATVWFMPEHALEDVDVPILMLSAEHDPYTPAWHGEIVRKGVRDPANVTSRCVKNAGHFSFLSPFPPKIKQGGALPTIDPEGFDRERFHEQLKQEILAYFNLRLKTAPA | not soluble |
| MSLSNGELAILVFGYPETMANQVIAYFQEFGTILEDFEVLRKPQAMTVGLQDKQFVPIFSGNSWTKITYDNPASAVDALLENGAVFNGVLLGVIPYTKDAVERLQKRKLTSSEDIGSGITTAAAETKHKDQGTIENDIPSQYMAKLDIKDGSNLFISTNTTSGTKVDPKKEQKKGVVGTVLRYFFGFNEGHHHHHH | soluble |
| MAHHHHHHMAFNQRFDRGAQPSYAAVQLPPGWQMAYSVEGEVYYIDHNTRTTHWKIPQEVLNEMYHQGQTYRPSRSRRGIDRSKMKTKMCMNIQNGGKCTWGNACAFAHSSEELAAVPHNGGGQRMRMDPGAHQGNDNGLDNNHLQQ | soluble |
